Assay: yeast display, Sf9 membrane polyspecificity reagent, FACS + sequencing; frameworks hold sequencing errors
Method in brief: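 Synthetic nanobody libraries on Saccharomyces cerevisiae BJ5465 were galactose-induced for 36–48 hours, stained 1 hour at 4 °C with 10% biotinylated, detergent-solubilized Sf9 membrane reagent and enriched on streptavidin microbeads. FACS then separated cells into low and high (top ~1%) gates by anti-HA (expression) and streptavidin (reagent binding) fluorescence. Genes were colony-PCR amplified, MiSeq 2 × 250 sequenced and CDR-length filtered. A clone's polyreactivity label is that of its gate of origin.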

Sequence | polyreactivity (PSR sort gate)
QVHLVESGGGLVQAGGSLRLSCAASGSILARYAMGWYRQAPRKERELVASITTSGDSTYYADSVKGRFTISRDNAKNTVSLQMNSLIPEDTAVYYCARRRWGWGYQHFPYYYWGQGTQVTVSS | high polyreactivity
QVHLVESGGGLVQAGGSLRLSCAASGSILDEYAMGWYRQPPGKESELVAAISSSGTSTYYADSVKRRFTISRDNAKNTDYLQMNSLKPEDTAVYDCARVKQHRSHRVPGDDYWGQGTQVTVSS | low polyreactivity
QVHLVESGGGLVQAGGSLRLSCAASGSIYHGNAMGWYRQAPGKERELVATISSGGSTYYADSLKVRFTISRDNAKNTVYLQMNSLKPEDTAVYYCAAERFWPYKSYYRGQGTQVTVSS | low polyreactivity
QVHLVESGGGLVQAGGSLRLSCAASGSIYVNTMGWYRPAPGKERELVAGISRSTGRTYYADSVKGRFTISRDNAKNTVYLQMNSLKPEDTAVYYCNTVPWRRWGYDYWGQGTQVTVSS | high polyreactivity
QVHLVESGGGLVQAGGSLRLSCAASGSLFYYNAMGWYRPAPGKERDLVAAINSNGGSTYYADTVKGRFTISRDNAKNTVYLQMNSLKPEDTAVYSSAAKYYFNWHRQGYDYWGQGTQVTVSS | high polyreactivity
QVHLVESGGGLVQAGGSLRLSCAASGSTCYWYTMGWYRKAPGKERELVARISSSGSTNYADSVKGRFTISRDNEKNTVYLLMNILKAEDTAVYYCNIDWFYRGYDYWGQGTQVTVSS | high polyreactivity
QVHLVESGGGLVQAGGSLRLSCAASGSTFDVYAMGWYRQAPRKERELVAVINTSGTRTYYADSVKGRFTISRDNAKNSVYLLMNSLKPEDTAVSYCNAGGNLEMIYWGQGTQVTVSS | low polyreactivity
QVHLVESGGGLVQAGGSLRLSCAASGSTFETNAMGWYRQSPGKERELVAAIRWSTGNTYYADSVKGRFTISRDNAKNTVYLQMNSLKPEDTAVYYCAAYKGKHYKEGYWGQGTQVTVSS | low polyreactivity
QVHLVESGGGLVQAGGSLRLSCAASGSTFFQYAMGWYRQAPGKERELVAAISSRGGRTYYADSVKGRFTISRDNAKNTVYLQMNRLKPEDTAVYYCATNRSVSYPYDGYYYWGQGTQVTVSS | high polyreactivity
QVHLVESGGGLVQAGGSLRLSCAASGSTFKRNAMGWYRQAPGKERELVAAITQRGGRTYYADSVKGRFTISRDNAKNTVYLQMNSLKPEDTAVYYCAVDSQTANDYDYWGQGTEVTVSS | low polyreactivity
QVHLVESGGGLVQAGGSLRLSCAASGSTFLYYAMGWYRQAPGKERELVAAISSSGGRTYYADSVKGRFTISRDNAKNTVYLQMNSLKPEDTAVYYCAADGRRTSKAGYYYWGQGTQVTVSS | high polyreactivity
QVHLVESGGGLVQAGGSLRLSCAASGSTFQWYAMGWYIQAPGKERELVATISYTGGSRTYYADSVKGRFTNSRDNAKNTVYLQMNSLKPEDTAVYDCAAESNQLFYFRRFDFWGQGTQVTVSS | low polyreactivity
QVHLVESGGGLVQAGGSLRLSCAASGSTFRHYAMGWYRQAPGKERELVAAISSRGGRTYYADSVKGRFTISRDNAKNTGYLQMNSQKPEDTAVYYCAADRFRLYVGGWWYDYWRQGTQVTVSS | high polyreactivity
QVHLVESGGGLVQAGGSLRLSCAASGSTFSIYTMGWYRQAPGKERELVAVITKSGGSTYYADSLKGRFTISRDNAKNTVYLQMISLKPEDIAVYYCAARRRGARHDYWGQGTQVTVSS | high polyreactivity
QVHLVESGGGLVQAGGSLRLSCAASGSTFSSYAMGWYRQAPGKERELVAAINWSGTRTYYADSVKGRFTISRDNAKNTVYLQMNSLKPEDTAVYYCAAPGDGETADYDYWGQGTQVTVSS | low polyreactivity
QVHLVESGGGLVQAGGSLRLSCAASGSTFTYYAMGWYRQAPGKERELVAAITSGGSTNYADSVKGRFTISRDNAKNTVYLQMNSLKPEDTAVYYCAGDGQNFQFYVVSEEYDYWGQGTQVTVSS | low polyreactivity
QVHLVESGGGLVQAGGSLRLSCAASGSTFYRYAMGWYRQAPGKERELVAAITTSGDSTYYADSVKGRFTISRDNAKNTVYLQMNSLKPEDTAIYDCNKVGRYSSYYWGQGSQVTVSS | high polyreactivity
QVHLVESGGGLVQAGGSLRLSCAASGSTFYVNAMGWDRQAPGKERELVAAIRSSGRTNYADSVKGRFTISRDNAKNTVYLQMNSLKPEDTAVYYCAAEVPHWPYYGRLHDRDYWGQGTQVTVSS | low polyreactivity
QVHLVESGGGLVQAGGSLRLSCAASGSTFYYAMGLYRKAPGKERELVASITFSTGSTYYADSVKGRFTISRDNAKNTVLLQMNSLKPEDTAVYYCATGVDTFSLSVEHDSWGQGTQVTVSS | low polyreactivity
QVHLVESGGGLVQAGGSLRLSCAASGSTIDYKAMGWYRQAPGKERELVAAITTIGGSTYYADSVKGRFTISRDNAKNTVYLQMNSLKPEDTAVYYCAADLRVWGRSGYDYWGQGTQVTVSS | low polyreactivity
QVHLVESGGGLVQAGGSLRLSCAASGSTSYVYAMGWYRKAPGKERELVAAISGSGGRTYYADSVKGRFTISRDNAKNTVYLQMNSLKPEDTAVYYCNALPRPSYPFDYWGQGTQVTVSS | high polyreactivity
QVHLVESGGGLVQAGGSLRLSCAASGTIFGINAMGWYRQAPGKERELVAGITSGGSTYYADSLKGRFTISRDNAKNTVDLQMNILKPEDTAVYYCAAVANQWYTEREYWGQGTQVTVSS | low polyreactivity

Sequence | polyreactivity (PSR sort gate)
QVHLVESGGGLVQAGGSLRLSCAASGYIFHVYAMGWYRQAPGKERELVAAITSSGGSKYYADSVKGRFTISRDNAKNTVYLQMNCLKPEDTAVYYCAARTRYISGRQTGYDYWGQGTQVTVSS | high polyreactivity
QVHLVESGGGLVQAGGSLRLSCAASGYIFTGYAMGCYRQAPGKERELVATINTDGDSTYYADSVKGRFTISRDNAKNTVYLQMNSLKPEDTAVYYCNKRLTQAYDDQVGYDYWGQGTQVTVSS | low polyreactivity
QVHLVESGGGLVQAGGSLRLSCAASGYRNAMGWYRQAPGKERELVAAISSGGSTYADSVKGRFTISRDNAKNTVYLQMNSLKPEDTAVYYCAAGPVPTYDYGNFDYWGQGTQVTVSS | low polyreactivity
QVHLVESGGGLVQAGGSLRLSCAASGYTFDSYAMGWYRQAPGKERELVAAISSGGRTKYADSVKGRFTISRDNAKNTVYLQMNSLKPEDTAFYYCAARRTFGVGILVGYWGQGTQVTVSS | high polyreactivity
QVHLVESGGGLVQAGGSLRLSCAASGYTFVVYAMGWYIQAPGKERELVAAINKSGGSTYYADSVKGRFTISRDHAKNSVYLQMNSLKAEDTAFYYCAADLLKLRTDYYWGQGTQVTVSS | low polyreactivity
QVHLVESGGGLVQAGGSLRLSCAASVRIISAYAMGWYRQAPGKERELVAAINGSGGSTYYADSVKGRFTISRDNAKNTVYLQMNSLKPEDTAVYYCAAKIDYPDARYFPYRYYYWGQGTQVTVSS | high polyreactivity
QVHLVESGGGLVQAGGSLRLSCAATGLIFPRYAMGWSRQAPGKEREMVAAITRGGSTYYADSVKGRFTISRDNAKNTVYLQMYSLKPEDTAVYYCNADYSPSTWYLYYSLYYYWGQGTQVTVSS | low polyreactivity
QVHLVESGGGLVQAGGSLRLSCAATGSTFPYNTMGWYRQAPGKERELVAAISSSGGSTYYADSVKGRFTISRDNAKNSVYLQRKSLKPEENAVYYCKAQIVASYQARRYYYWGQGTQVTVSS | low polyreactivity
QVHLVESGGGLVQAGGSLRLSCAAYGRIFKNYAMGWYRQAPGKESELVAAISWSGGRTYYADSVKGRFTISRDNAKNTVYLQMNSLKPEDTAVYYCATAARRGTSSIEPFGYGSWGQGTQVTVSS | high polyreactivity
QVHLVESGGGLVQAGGSLRLSCAAYGSIFHGNAMGWYRQAPGKERELVAAISWSGDSTYYADSVKGRFTISRDNAKNTVYLHMNSLKPEDTAVYSCNAEWTRDFYEYDYWGQGTQVTVSS | low polyreactivity
QVHLVESGGGLVQAGGSLRLSCAAYGSIFRVYAMGWYRPAPGKERELVAAIDSGGSTYYADSVKGRFTISRDNAKNTVYLQMNSLKPEDTAVYYCNADRRPGGDYWGQGTQVTVSS | low polyreactivity
QVHLVESGGGLVQAGGSLRLSCAPSGSTFIRNAILWYRQAPGKDRELVAPISRSGSSTYYADSVKGRFTISRDNAKNTVYLQMNSLKPEDTAVYYCAAETDSRKARVLYDSWGQGTQVTVSS | high polyreactivity
QVHLVESGGGLVQAGGSLRLSCASYGSTLELNAMGWYRQAPGKERELVAAITSSGGRTYYADSVKGRFTISRDNAKNTVYLQMKSLKPEDTAVYYCAAEPGQQRVVDRYDYWGQGTQVTVSS | low polyreactivity
QVHLVESGGGLVQAGGSLRLSCDASGRIFKYNAMGWYRQAPGKERELVAAISSGGSTNYADSVKGRFTISRDNAKNTVYLQMNSLKPEDTAVYDCAADGTRVSSFHYLVWLCYWGQGTQVTVSS | low polyreactivity
QVHLVESGGGLVQAGGSLRLSCDASGSIIDGYGMGWYRQAPGKERELVASITWNDGSTYYADSVKGRFTISRDNAKNTVYLQMNSLKPEDTAVYYCAADQWGYEYDYWGQGTQVTVSS | low polyreactivity
QVHLVESGGGLVQAGGSLRLSCHASGIIFKTYAMGWYRQPPGKERELVAAISSGGTTYYADSVKGRFTISRDNAKNTVYLQMNSLKPEDTAVYYCAARGYRSGGGYNYWGQGTQVTVSS | high polyreactivity
QVHLVESGGGLVQAGGSLRLSCPASGRTFYRKAMGWDRQAPGKERELVAAITSGGGTTYADSVKGRFTISRDNAKNTVYLQMNSLKPEDTAVYYCAAGRVRRRVLYNYWGQGTQVTVSS | high polyreactivity
QVHLVESGGGLVQAGGSLRLSCSASGITFLTYTMGWYRQEPGKERELVASIRYSTGSTYYADSVKGRFTISRDNAKNTVYLQMNSLKPEDTAVYYCNDYSSYIKYDYWGQGTQVTVTS | high polyreactivity
QVHLVESGGGLVQAGGSLRLSCSASGITFTRYTMGWYRQARGKERELVASIRRSGSTNYADSVKGRFTISRDNAKNTVYLQMNSLKPEDTAVYYCAAVQTGRYYYWGQGTQVTVSS | high polyreactivity
QVHLVESGGGLVQAGGSLRLSCSASGRIFDNYVMGWYRQAPGKERELVAAISSGGGTYYADSVKGRFTISRDNAKNTVFLQMNSLKPEDTAVYYCAKRRVYDRSFGRYDYWGQGTQVTVSS | low polyreactivity
QVHLVESGGGLVQAGGSLRLSFAASGFTFGQNAMGWYRQAPGKEREFVATITASGSTYYADSVKGRFTISRDNAKNTVYLQMYSLKPEDTAVYYCATRYAGEYYWDYDYWGQGTQVTVSS | high polyreactivity

— the nanobody polyreactivity screen of Harvey et al. (2022)
